Earlier results as cited in paper PMC8223436.

Molecular target: HER2 domain IV (Homo sapiens) (UniProt P04626)

Kd: 0.56 nM
Substance: Trastuzumab
